Literature values as cited in publication PMC10889394.
One block for each substance: values may come before it.

Key:
TIMP-2 (Homo sapiens) = TIMP-2 (Homo sapiens) (UniProt P16035)
[1] = target: cystatin E (Homo sapiens) (UniProt Q15828)
[2] = target: recombinant hirudin variant 1 (Hirudo medicinalis) (UniProt P01050)
[3] = target: SFTI-TCTR-N12N14 (synthetic construct)
[4] = target: SFTI-1 (Helianthus annuus) (UniProt Q4GWU5)

β-trypsin, sequence (P00760 149-246): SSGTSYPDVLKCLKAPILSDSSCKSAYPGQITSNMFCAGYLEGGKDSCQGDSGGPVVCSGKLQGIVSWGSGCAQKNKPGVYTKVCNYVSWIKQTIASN
cystatin E (Homo sapiens), sequence (Q15828 29-149): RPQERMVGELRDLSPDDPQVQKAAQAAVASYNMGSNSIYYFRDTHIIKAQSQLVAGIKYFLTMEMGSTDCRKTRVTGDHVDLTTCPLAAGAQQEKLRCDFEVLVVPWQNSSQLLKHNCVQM
TIMP-2 (Homo sapiens), sequence (P16035 27-220): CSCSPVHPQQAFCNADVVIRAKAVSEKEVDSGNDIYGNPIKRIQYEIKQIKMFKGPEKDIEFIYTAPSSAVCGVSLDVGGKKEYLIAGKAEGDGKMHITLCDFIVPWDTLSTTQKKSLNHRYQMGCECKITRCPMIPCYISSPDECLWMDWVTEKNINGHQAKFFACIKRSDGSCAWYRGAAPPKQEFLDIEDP

Ki (TIMP-2 (Homo sapiens)): 0.104 nM
Substance: MMP-14 catalytic domain (from UniProt P50281)

Ki [1]: 0.011 nM
Substance: legumain (from UniProt Q99538)

Substance: thrombin (from UniProt P00734)
Ki [2]: 0.00018 nM

Ki [3]: 0.7 nM | Ki [4]: 0.017 nM
Substance: β-trypsin (from UniProt P00760)
